The text below walks through data of the supplement of paper PMC5998384.

The subject of data set [1] is HeLa Kyoto. The data set can be described thus: solubility in G1/S (NP-40 vs SDS abundance) (log2 ratio); higher = more soluble. Conditions: cell cycle stage: G1/S.
Data set [2] has as its system HeLa Kyoto. The data set can be described thus: melting temperature (median over replicates), in situ; higher = more thermally stable.
Data set [3] relates to HeLa Kyoto. Nature of the data set: solubility change mitosis vs G1/S (difference of NP-40 vs SDS log2 ratios) (log2 ratio difference); higher = more soluble in mitosis.
In data set [4] the test system is HeLa Kyoto. Nature of the data set: thermal stability score vs G1/S (z-score of summed log2 fold changes over temperatures); higher = more thermally stable than in G1/S.
Where [5] appears, read: cell cycle stage: early G1 (4.5 h after nocodazole release).
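Throughout, for melting temperature (median over replicates), in situ: HeLa Kyoto cells synchronized by double thymidine or nocodazole block, proteins quantified by TMT10plex mass spectrometry, three independent biological replicates.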
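Throughout, for solubility change mitosis vs G1/S (difference of NP-40 vs SDS log2 ratios): synchronized HeLa Kyoto cells (double thymidine block for G1/S, nocodazole release for mitosis), protein amounts in NP-40 versus SDS lysates quantified by mass spectrometry, three biological replicates.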
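Throughout, for solubility in G1/S (NP-40 vs SDS abundance): HeLa Kyoto cells arrested at G1/S by double thymidine block, proteins quantified by TMT10plex mass spectrometry in mild NP-40 versus SDS extracts, three biological replicates.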
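Throughout, for thermal stability score vs G1/S (z-score of summed log2 fold changes over temperatures): synchronized HeLa Kyoto cells, proteins quantified by TMT10plex mass spectrometry, three biological replicates, mitosis taken 0.5 h after nocodazole release, G1/S directly after double thymidine block.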

Regarding “MAARCSTRWLLVVVGTPRLPAISGRGARPPREGVVGAWLSRKLSVPAFASSLTSCGPRALLTLRPGVSLTGTKHNPFICTASFHTSAPLAKEDYYQILGVPRNASQKEIKKAYYQLAKKYHPDTNKDDPKAKEKFSQLAEAYEVLSDEVKRKQYDAYGSAGFDPGASGSQHSYWKGGPTVDPEELFRKIFGEFSSSSFGDFQTVFDQPQEYFMELTFNQAAKGVNKEFTVNIMDTCERCNGKGNEPGTKVQHCHYCGGSGMETINTGPFVMRSTCRRCGGRGSIIISPCVVCRGAGQAKQKKRVMIPVPAGVEDGQTVRMPVGKREIFITFRVQKSPVFRRDGADIHSDLFISIAQALLGGTARAQGLYETINVTIPPGTQTDQKIRMGGKGIPRINSYGYGDHYIHIKIRVPKRLTSRQQSLILSYAEDETDVEGTVNGVTLTSSGGSTMDSSAGSKARREAGEDEEGFLSKLKKMFTS [DNAJA3]”, the “solubility in G1/S (log2)” value in the data set on HeLa Kyoto [1] was -0.186. Besides, the melting temperature worked out at 48.4 °C in the data set with HeLa Kyoto [2] (cell cycle stage: G1/S) and 50.3 °C in the data set with HeLa Kyoto [2] (cell cycle stage: mitosis). Besides, the “solubility change mitosis (log2)” value in the data set with HeLa Kyoto [3] was -0.0129. Further, the thermal stability score in the data set with HeLa Kyoto [4] (setting [5]) is -0.681; with HeLa Kyoto [4] (cell cycle stage: mitosis), 0.373.

With “MAARTVIIDHGSGFLKAGTAGWNEPQMVFPNIVNYLPCKENPGPSYARRRVSLGIDICHPDTFSYPIERGRILNWEGVQYLWSFVLENHRREQEVPPVIITETPLREPADRKKMLEILFELLHVPSVLLADQLQMSLYASGLLTGVVVDSGYGLTRVQPFHQGRPLPASGKTLEFAGQDLSAYLLKSLFKEDCDRRCLFQLETVAVTQMNKCYVPQNLGEALDFRERQQSALDESNTYQLPDGSRVELTPMQRVAPEMFFSPQVFEQPGPSIPRAIVESVESCEISLRPLLVSHVMACGGNTLYPGFTKRLFRELMGDHVSSTKATVWEGSNRNFSVWLGASVVAHLSTYQSEWMSREEYGEHMRM [ACTL8]”, the “solubility in G1/S (log2)” value in the data set with HeLa Kyoto [1] was -0.19. The melting temperature in the data set on HeLa Kyoto [2] (cell cycle stage: G1/S) turned out to be 52.8 °C; in the data set on HeLa Kyoto [2] (cell cycle stage: mitosis) it was 52.4 °C. Also, the “solubility change mitosis (log2)” value with HeLa Kyoto [3] is 0.0715. The figures for the thermal stability score with HeLa Kyoto [4] (setting [5]) and in the data set with HeLa Kyoto [4] (cell cycle stage: mitosis) were -0.233 and -1.1, respectively.

On to “MAASALYACTKCTQRYPFEELSQGQQLCKECRIAHPIVKCTYCRSEFQQESKTNTICKKCAQNVKQFGTPKPCQYCNIIAAFIGTKCQRCTNSEKKYGPPQTCEQCKQQCAFDRKEEGRRKVDGKLLCWLCTLSYKRVLQKTKEQRKSLGSSHSNSSSSSLTEKDQHHPKHHHHHHHHHHRHSSSHHKISNLSPEEEQGLWKQSHKSSATIQNETPKKKPKLESKPSNGDSSSINQSADSGGTDNFVLISQLKEEVMSLKRLLQQRDQTILEKDKKLTELKADFQYQESNLRTKMNSMEKAHKETVEQLQAKNRELLKQVAALSKGKKFDKSGSILTSP [FAM76B]”, for which, in the data set on HeLa Kyoto [1], the “solubility in G1/S (log2)” value was -0.529. The melting temperature in the data set on HeLa Kyoto [2] (cell cycle stage: mitosis) came out at 51.3 °C. In addition, the “solubility change mitosis (log2)” value in the data set on HeLa Kyoto [3] amounted to 0.486. Further, the thermal stability score in the data set on HeLa Kyoto [4] (setting [5]) is -0.509; in the data set with HeLa Kyoto [4] (cell cycle stage: mitosis), 0.107.

For the sequence “MAASGEPQRQWQEEVAAVVVVGSCMTDLVSLTSRLPKTGETIHGHKFFIGFGGKGANQCVQAARLGAMTSMVCKVGKDSFGNDYIENLKQNDISTEFTYQTKDAATGTASIIVNNEGQNIIVIVAGANLLLNTEDLRAAANVISRAKVMVCQLEITPATSLEALTMARRSGVKTLFNPAPAIADLDPQFYTLSDVFCCNESEAEILTGLTVGSAADAGEAALVLLKRGCQVVIITLGAEGCVVLSQTEPEPKHIPTEKVKAVDTTGAGDSFVGALAFYLAYYPNLSLEDMLNRSNFIAAVSVQAAGTQSSYPYKKDLPLTLF [RBKS]”, in the data set with HeLa Kyoto [1], the “solubility in G1/S (log2)” value amounted to 0.229. In addition, the figures for the melting temperature in the data set with HeLa Kyoto [2] (cell cycle stage: G1/S) and in the data set on HeLa Kyoto [2] (cell cycle stage: mitosis) were 57.9 °C and 54.8 °C, respectively. Moreover, the “solubility change mitosis (log2)” value in the data set with HeLa Kyoto [3] was -0.0848. Besides, the thermal stability score is -2.59 in the data set with HeLa Kyoto [4] (setting [5]) and -2.4 with HeLa Kyoto [4] (cell cycle stage: mitosis).

As to “MAASGKLSTCRLPPLPTIREIIKLLRLQAAKQLSQNFLLDLRLTDKIVRKAGNLTNAYVYEVGPGPGGITRSILNADVAELLVVEKDTRFIPGLQMLSDAAPGKLRIVHGDVLTFKVEKAFSESLKRPWEDDPPNVHIIGNLPFSVSTPLIIKWLENISCRDGPFVYGRTQMTLTFQKEVAERLAANTGSKQRSRLSVMAQYLCNVRHIFTIPGQAFVPKPEVDVGVVHFTPLIQPKIEQPFKLVEKVVQNVFQFRRKYCHRGLRMLFPEAQRLESTGRLLELADIDPTLRPRQLSISHFKSLCDVYRKMCDEDPQLFAYNFREELKRRKSKNEEKEEDDAENYRL [TFB1M]”, in the data set with HeLa Kyoto [1], the “solubility in G1/S (log2)” value was -0.318. The figures for the melting temperature with HeLa Kyoto [2] (cell cycle stage: G1/S) and in the data set with HeLa Kyoto [2] (cell cycle stage: mitosis) were 51.7 °C and 51.4 °C, respectively. Also, the “solubility change mitosis (log2)” value in the data set on HeLa Kyoto [3] was 0.122. In addition, the thermal stability score in the data set on HeLa Kyoto [4] (setting [5]) worked out at 0.388; in the data set with HeLa Kyoto [4] (cell cycle stage: mitosis), 0.452.

Consider “MAASRPLSRFWEWGKNIVCVGRNYADHVREMRSAVLSEPVLFLKPSTAYAPEGSPILMPAYTRNLHHELELGVVMGKRCRAVPEAAAMDYVGGYALCLDMTARDVQDECKKKGLPWTLAKSFTASCPVSAFVPKEKIPDPHKLKLWLKVNGELRQEGETSSMIFSIPYIISYVSKIITLEEGDIILTGTPKGVGPVKENDEIEAGIHGLVSMTFKVEKPEY [FAHD1]”, for which the “solubility in G1/S (log2)” value in the data set on HeLa Kyoto [1] was 0.144. Also, the values for the melting temperature in the data set with HeLa Kyoto [2] (cell cycle stage: G1/S) and in the data set on HeLa Kyoto [2] (cell cycle stage: mitosis) were 53.5 °C and 60 °C, respectively. The “solubility change mitosis (log2)” value with HeLa Kyoto [3] is -0.257. For the same sequence, the thermal stability score in the data set with HeLa Kyoto [4] (setting [5]) was -1.32; in the data set with HeLa Kyoto [4] (cell cycle stage: mitosis), -1.65.

As for “MAASVEQREGTIQVQGQALFFREALPGSGQARFSVLLLHGIRFSSETWQNLGTLHRLAQAGYRAVAIDLPGLGHSKEAAAPAPIGELAPGSFLAAVVDALELGPPVVISPSLSGMYSLPFLTAPGSQLPGFVPVAPICTDKINAANYASVKTPALIVYGDQDPMGQTSFEHLKQLPNHRVLIMKGAGHPCYLDKPEEWHTGLLDFLQGLQ [ABHD14B]”, the “solubility in G1/S (log2)” value with HeLa Kyoto [1] was 0.421. Also, the results for the melting temperature in the data set with HeLa Kyoto [2] (cell cycle stage: G1/S) and in the data set with HeLa Kyoto [2] (cell cycle stage: mitosis) were 52.9 °C and 52.7 °C, respectively. Also, the “solubility change mitosis (log2)” value in the data set on HeLa Kyoto [3] is -0.165. In addition, the values for the thermal stability score in the data set on HeLa Kyoto [4] (setting [5]) and with HeLa Kyoto [4] (cell cycle stage: mitosis) were -0.635 and -1.1, respectively.

On to “MAATAREDGASGQERGQRGCEHYDRGCLLKAPCCDKLYTCRLCHDNNEDHQLDRFKVKEVQCINCEKIQHAQQTCEECSTLFGEYYCDICHLFDKDKKQYHCENCGICRIGPKEDFFHCLKCNLCLAMNLQGRHKCIENVSRQNCPICLEDIHTSRVVAHVLPCGHLLHRTCYEEMLKEGYRCPLCMHSALDMTRYWRQLDDEVAQTPMPSEYQNMTVDILCNDCNGRSTVQFHILGMKCKICESYNTAQAGGRRISLDQQ [RCHY1]”, for which, in the data set with HeLa Kyoto [1], the “solubility in G1/S (log2)” value was 0.146. The figures for the melting temperature in the data set with HeLa Kyoto [2] (cell cycle stage: G1/S) and with HeLa Kyoto [2] (cell cycle stage: mitosis) were 51.2 °C and 52.3 °C, respectively. In addition, the “solubility change mitosis (log2)” value in the data set on HeLa Kyoto [3] is -0.374. The thermal stability score in the data set on HeLa Kyoto [4] (setting [5]) is -0.0247; in the data set on HeLa Kyoto [4] (cell cycle stage: mitosis), 0.646.
